Laboratory results from article PMC5433938.

How the values were obtained:
[1] = target: T1, estrogen receptor alpha (ERα) (human (endogenous in MCF-7 and T-47D)), P03372; experiment: structured illumination microscopy (N-SIM) of double immunofluorescence; T-47D cells, formalin-fixed paraffin cell-block sections; two primary antibodies, Alexa Fluor 488 and 594 secondaries; % of ER dimer = yellow area/(yellow + green + red areas) x 100; conditions: remark: other sources report otherwise
T1 chain: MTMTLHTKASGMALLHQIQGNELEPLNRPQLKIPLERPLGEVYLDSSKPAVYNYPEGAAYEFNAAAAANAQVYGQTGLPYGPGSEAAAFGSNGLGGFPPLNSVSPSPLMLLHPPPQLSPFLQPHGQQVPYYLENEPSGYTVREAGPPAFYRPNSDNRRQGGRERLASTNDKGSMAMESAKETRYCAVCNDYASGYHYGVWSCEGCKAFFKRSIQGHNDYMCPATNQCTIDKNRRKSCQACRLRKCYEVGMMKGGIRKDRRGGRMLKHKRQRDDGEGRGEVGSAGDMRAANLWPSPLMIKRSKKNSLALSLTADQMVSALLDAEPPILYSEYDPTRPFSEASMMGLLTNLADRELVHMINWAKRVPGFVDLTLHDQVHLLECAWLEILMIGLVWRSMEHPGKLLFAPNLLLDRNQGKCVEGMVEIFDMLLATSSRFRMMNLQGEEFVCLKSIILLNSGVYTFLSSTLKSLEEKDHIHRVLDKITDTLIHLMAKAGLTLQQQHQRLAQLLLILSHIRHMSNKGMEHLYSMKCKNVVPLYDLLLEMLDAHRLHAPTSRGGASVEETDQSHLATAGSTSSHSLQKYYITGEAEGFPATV

[2] = target: T1, estrogen receptor alpha (ERα) (human …); experiment: structured illumination microscopy (N-SIM) of double immunofluorescence; MCF-7 cells, formalin-fixed paraffin cell-block sections; two primary antibodies, Alexa Fluor 488 and 594 secondaries; % of ER dimer = yellow area/(yellow + green + red areas) x 100; homodimer also followed with 10 nM E2 for 15, 45, 90 min; conditions: remark: other sources report otherwise

B1: estrogen receptor alpha (ERα), P03372 1-595 (receptor)
chain: T1 chain
[1]
  % of ER dimer (N-SIM): 13.4%
[2]
  % of ER dimer (N-SIM): 23%
